One assay deals with T1, recombinant human tau (human, UniProt P10636-6 1-383, limits assumed).
T1 construct: also called human recombinant tau without polyhistidine tag; native, untagged protein
The assay is described as follows: SPR (Biacore T200): antibody captured on an anti-mouse chip, recombinant human tau 10-0.14 nM as analyte, global 1:1 fit. As for the experimental part: Methods: SPR analysis was performed using a Biacore T200 to determine the binding kinetics of murine antibodies to recombinant human tau. To prepare a sensor surface, anti-mouse antibody (GE Life Sciences) was immobilized on sensor chip CM5 via amine coupling, and antibody was captured at a level to ensure maximum binding of 50 RU. Various concentrations of recombinant tau ranging from 10-0.14 nM were passed over the captured ligand at a flow rate of 50 μL/min in running buffer (HBS+0.05% P-20, 1 mg/mL BSA), for 180 sec association and 900 sec dissociation. Data were double-referenced to both an irrelevant sensor not containing antibody ligand, and 0 nM analyte concentration to account for the dissociation of ligand from the capture moiety. Data was then analyzed using a global 1:1 fit.

In assay [1] the target is T2, biotinylated tau peptide, amino acid residues 199-213 of SEQ ID NO:3 (human, also: biotinylated, site not given here).
T2 construct: One of the overlapping peptides spanning 4R0N human tau
T2 peptide: KSKIGSTENLKHQPG
The assay is described as follows: peptide ELISA, epitope mapping of hybridoma positives. The procedure: (§1) Additional peptides were used to model potential post-translational modifications of the C- and N-terminal ends of the protein.
(§2) Biotinylated peptides were bound to separate wells of a streptavidin-coated ELISA plate. The plate was blocked and treated with murine 3D6, followed by incubation with a horseradish peroxidase-conjugated anti-mouse antibody. After thorough washing, OPD was applied to the plate and allowed to develop. The plate was read at 450 nm absorbance. Background subtraction was performed with absorbance values from wells containing no primary antibody, and a threshold for positive binding was set to 0.2 absorbance units. […] (FIG. 1)

In assay [2] the target is T3, biotinylated tau peptide, amino acid residues 262-276 of SEQ ID NO:3 (human, also: biotinylated, site not given here).
T3 construct: One of the overlapping peptides spanning 4R0N human tau
T3 peptide: SKCGSLGNIHHKPGG
The assay is described as above. As for the experimental part: as §1, §2

The target in another assay is T4, 271-285 (also: biotinylated, site not given here).
T4 peptide: HHKPGGGQVEVKSEK
The assay is described as follows: peptide ELISA, biotinylated peptide on streptavidin plate; background-subtracted absorbance; positive from 0.2. As for the experimental part:
as §1, §2

Assay [3] addresses T5, tau peptide NVKSKIGSTENLKHQPG (SEQ ID NO:184) (human).
T5 construct: Printed on a microarray together with all its single substitution variants; also called probe peptide
T5 peptide: NVKSKIGSTENLKHQPG
The assay is described as follows: peptide microarray, 3D6 at 10 ug/ml. As for the experimental part: The assay exchanged each of the amino acids in the peptide sequence with all 20 amino acids, to determine with a high degree of accuracy the core epitope for 3D6. The microarray was printed with all peptides in triplicate, along with HA control peptides to ensure assay performance. To perform the assay, the array was incubated with 3D6 (10 ug/ml) in blocking buffer, washed with PBS-T, followed by incubation with a goat anti-mouse secondary antibody conjugated to DyLight-680. In addition, the microarray was incubated with anti-HA antibody 12CA5 directly conjugated to DyLight-800. Microarrays were scanned using a LiCor scanner, and intensities of triplicates were averaged.

Where no end group is shown, it is not given here.

T1 sequence (P10636 other isoform, or with tags, fused parts or gaps limits assumed): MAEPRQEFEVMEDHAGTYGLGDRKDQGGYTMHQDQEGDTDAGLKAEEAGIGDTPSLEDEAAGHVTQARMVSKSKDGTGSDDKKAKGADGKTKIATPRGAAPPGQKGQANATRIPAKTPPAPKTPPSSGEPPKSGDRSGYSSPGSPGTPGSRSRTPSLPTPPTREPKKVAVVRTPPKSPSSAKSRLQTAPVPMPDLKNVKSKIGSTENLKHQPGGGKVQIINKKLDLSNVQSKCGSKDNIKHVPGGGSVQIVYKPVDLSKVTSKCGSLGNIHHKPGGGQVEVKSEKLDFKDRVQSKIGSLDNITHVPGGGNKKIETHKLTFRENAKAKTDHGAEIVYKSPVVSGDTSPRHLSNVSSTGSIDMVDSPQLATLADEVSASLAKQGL

B1: murine 3D6 monoclonal antibody (antibody, IgG1, V domains shown)
VH: EVQLQQSGADLVRPGALVKLSCKASGFNIKDYYLHWVRQRPEQGLEWIGWIDPENGDTVYDPKFQGKATITADTSSNTAYLQLGSLTSEDTAVYFCSTLDFWGQGTTLTVSS
VL: not shown
notes: Hybridoma-derived mouse antibody; also called m3D6; mouse 3D6
As for B1, in the assay with recombinant human tau, the Kd was determined as 460 pM. For the same molecule, in the assay with recombinant human tau, the koff came out at 0.00119 s⁻¹. The kon with recombinant human tau amounted to 2.58e+06 M⁻¹ s⁻¹. The binding result was “binds” in assay [1], “binds” in assay [2], “no binding” with 271-285 and “binds” in assay [3].

Values taken from patent US20200369755A1 (PROTHENA BIOSCIENCES, published 2020).
